Reference: publication doi:10.1101/2025.02.05.636725, “DHRS7 Integrates NADP^+/NADPH Redox Sensing with Inflammatory Lipid Signalling via the Oxoeicosanoid Pathway” (bioRxiv, 2025)

Experiments:
[1] = substrate: CCCCC/C=C\C/C=C\C/C=C\C=C\[C@@H](O)CCCC(=O)O; experiment: cells, lysate or membranes; conditions: microsomes of overexpressing HEK293T DHRS7-KO cells, NADP+ in excess, pH 7.5, 37 °C, apparent (pseudo-first order), eGFP fusion
[2] = substrate: NC(=O)c1ccc[n+]([C@@H]2O[C@H](COP(=O)(O)OP(=O)(O)OC[C@H]3O[C@@H](n4cnc5c(N)ncnc54)[C@H](OP(=O)(O)O)[C@@H]3O)[C@@H](O)[C@H]2O)c1; experiment: NADPH fluorescence, plate reader, Michaelis-Menten fit of initial velocities; format: cell-based, Danio rerio; conditions: microsomes of overexpressing HEK293T DHRS7-KO cells, 5(S)-HETE in excess, pH 7.5, 37 °C, apparent (pseudo-first order), eGFP fusion, varied: cofactor
[3] = substrate: NC(=O)c1ccc[n+]([C@@H]2O[C@H](COP(=O)(O)OP(=O)(O)OC[C@H]3O[C@@H](n4cnc5c(N)ncnc54)[C@H](OP(=O)(O)O)[C@@H]3O)[C@@H](O)[C@H]2O)c1; experiment: as above; format: cell-based, Homo sapiens; conditions: microsomes of overexpressing HEK293T DHRS7-KO cells, 5(S)-HETE in excess, pH 7.5, 37 °C, apparent (pseudo-first order), eGFP fusion, varied: cofactor

| Protein | Km [1] | Km [2] | Km [3] |
| --- | --- | --- | --- |
| dr Dhrs7 (Danio rerio) (protein, Dhrs7-eGFP fusion (pSBtet-eGFP vector, doxycycline-induced) in microsomes of human HEK293T DHRS7-knockout cells) MDICWLCVGLAGTAVYLLVQFIRFIFADADLTLLWAARFGKTPESTFRGKVVWITGASSGIGEELSLQLAAIGARLVLSARRENELERVKRLCLERSSLKAEDILVLPLDLMDRASHPEKTTAALEHFGEIDVLINNGGRSQRALCVDADVDVYQALMELNYLGTVSITKQVLPHMIQRGTGIIATVSSVAGFVGVPLATGYAASKHALQGFFNSLRTELSDCPNILISNICPGPVISSIVQNAFTEELGKPVATAGDQTHKMSTERCVHLTLVGLANRVKEMWIAEQPFLLFCYVWQYTPTLAWYLTNVLGKKRVQNFKAGVDADAAYFSKPKAKTS | 1.4 (95% CI: [1.1, 1.7]) μM | 0.63 (95% CI: [0.24, 1.03]) μM | – |
| hs DHRS7 (Homo sapiens) (protein, DHRS7-eGFP fusion (pSBtet-eGFP vector, doxycycline-induced) in microsomes of HEK293T DHRS7-knockout cells) MNWELLLWLLVLCALLLLLVQLLRFLRADGDLTLLWAEWQGRRPEWELTDMVVWVTGASSGIGEELAYQLSKLGVSLVLSARRVHELERVKRRCLENGNLKEKDILVLPLDLTDTGSHEAATKAVLQEFGRIDILVNNGGMSQRSLCMDTSLDVYRKLIELNYLGTVSLTKCVLPHMIERKQGKIVTVNSILGIISVPLSIGYCASKHALRGFFNGLRTELATYPGIIVSNICPGPVQSNIVENSLAGEVTKTIGNNGDQSHKMTTSRCVRLMLISMANDLKEVWISEQPFLLVTYLWQYMPTWAWWITNKMGKKRIENFKSGVDADSSYFKIFKTKHD | 0.78 (95% CI: [0.43, 1.13]) μM | – | 0.62 (95% CI: [0.39, 0.97]) μM |
